Measurements taken from article PMC11667166, “O-glycosylation is essential for cell surface expression of the transcobalamin receptor CD320” (The Journal of Biological Chemistry, 2024).

Molecular target: the molecule itself
Assay: co-IP; CD320-FLAG and CD320-V5 co-expressed in HEK293 cells; immunoprecipitation with anti-FLAG or anti-V5 antibody, western blotting with anti-FLAG or anti-V5 under non-reducing conditions (~350-kDa band)

B1: human CD320 (transcobalamin receptor), wild type, with an N-terminal FLAG or V5 tag (receptor, UniProt Q9NPF0-1 36-282, looked up)
chain: SPLSTPTSAQAAGPSSGSCPPTKFQCRTSGLCVPLTWRCDRDLDCSDGSDEEECRIEPCTQKGQCPPPPGLPCPCTGVSDCSGGTDKKLRNCSRLACLAGELRCTLSDDCIPLTWRCDGHPDCPDSSDELGCGTNEILPEGDATTMGPPVTLESVTSLRNATTMGPPVTLESVPSVGNATSSSAGDQSGSPTAYGVIAAAAVLSASLVTATLLLLSWLRAQERLRPLGLLVAMKESLLLSEQKTSLP
modifications: N-glycans at N126, N195 and N213; terminally sialylated O-glycans (the ~70-kDa proteoform)
notes: CD320 (transcobalamin receptor), human, NCBI NP_057663.1; wild type; type I transmembrane protein with signal peptide, two LDLR repeats, EGF-like module, transmembrane domain and cytoplasmic segment; Two differently tagged copies of the same protein (one with N-terminal FLAG, one with N-terminal V5) were co-expressed; each chain carries only one of the two tags; The ~350-kDa complex is seen only …
- stoichiometry N: ~5
